Source: patent publication US20260008857A1 (FLAGSHIP PIONEERING INNOVATIONS VI, published 2026)
Changes are numbered by the printed parent chain. Like-named read-outs stand apart in the source and are kept apart here. One block for each binder: values may come before it.

Tests used:
[1] = molecular target: T1, human IL-4Rα (interleukin 4 receptor subunit alpha) (human, UniProt P24394 26-232, limits assumed); experiment: SPR, Carterra LSA non-regenerative capture kinetics; antibody captured on goat anti-human polyclonal lawn, human IL-4Rα as analyte, 25 C, 1:1 model; average ± SD of technical replicates
T1 sequence (looked up): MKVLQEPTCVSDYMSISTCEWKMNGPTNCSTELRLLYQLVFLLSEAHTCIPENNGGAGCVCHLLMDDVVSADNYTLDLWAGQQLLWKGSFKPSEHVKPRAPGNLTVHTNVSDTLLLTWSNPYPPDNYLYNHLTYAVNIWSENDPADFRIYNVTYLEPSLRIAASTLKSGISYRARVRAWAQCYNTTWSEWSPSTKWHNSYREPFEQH

[2] = molecular target: T1, human IL-4Rα (interleukin 4 receptor …); experiment: indirect ELISA on plate-coated recombinant human IL-4Rα (2 ug/mL), anti-human IgG Fc-HRP, A450
[3] = molecular target: T1, human IL-4Rα (interleukin 4 receptor …); experiment: as above; remark: listed apart in the source
[4] = molecular target: T1, human IL-4Rα (interleukin 4 receptor …); experiment: SPR, Biacore 8K+ multi-cycle capture kinetics; antibody captured on goat anti-human polyclonal surface, human IL-4Rα as analyte, 25 C, 1:1 model
[5] = molecular target: T2, IL-4Rα on human primary cells (primary B cells, whole blood B and T cells, PBMCs) (human, UniProt P24394 26-825); experiment: cell-based or functional assay
T2 sequence (looked up): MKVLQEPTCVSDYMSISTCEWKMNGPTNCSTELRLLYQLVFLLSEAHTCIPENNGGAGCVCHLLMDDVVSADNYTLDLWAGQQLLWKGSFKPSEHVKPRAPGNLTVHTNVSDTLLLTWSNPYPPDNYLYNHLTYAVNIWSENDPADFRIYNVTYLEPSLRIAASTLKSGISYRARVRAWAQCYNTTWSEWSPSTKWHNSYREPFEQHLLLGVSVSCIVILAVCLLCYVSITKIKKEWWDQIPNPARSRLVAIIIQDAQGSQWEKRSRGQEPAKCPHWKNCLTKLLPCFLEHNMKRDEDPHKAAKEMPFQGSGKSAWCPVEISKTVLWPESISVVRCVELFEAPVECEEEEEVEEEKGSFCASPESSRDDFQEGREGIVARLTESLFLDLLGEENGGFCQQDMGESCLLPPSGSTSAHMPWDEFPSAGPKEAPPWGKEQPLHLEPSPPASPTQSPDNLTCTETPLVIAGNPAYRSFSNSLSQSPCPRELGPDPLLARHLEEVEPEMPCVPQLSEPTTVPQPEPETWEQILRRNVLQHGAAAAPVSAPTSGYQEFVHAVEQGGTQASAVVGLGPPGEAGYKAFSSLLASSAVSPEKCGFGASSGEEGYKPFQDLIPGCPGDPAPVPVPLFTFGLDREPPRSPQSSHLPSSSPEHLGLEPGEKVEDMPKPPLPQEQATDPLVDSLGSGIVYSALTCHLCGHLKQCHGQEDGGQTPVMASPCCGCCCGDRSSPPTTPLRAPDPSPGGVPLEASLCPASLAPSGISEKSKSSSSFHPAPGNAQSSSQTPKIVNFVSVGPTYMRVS

[6] = molecular target: T1, human IL-4Rα (interleukin 4 receptor …); experiment: cell-based or functional assay

- Kd [1]: 0.63 nM
- EC50 (read off the curve) [2]: ~0.02 nM
B1: AB-9c (antibody, human IgG4 S228P, kappa)
heavy: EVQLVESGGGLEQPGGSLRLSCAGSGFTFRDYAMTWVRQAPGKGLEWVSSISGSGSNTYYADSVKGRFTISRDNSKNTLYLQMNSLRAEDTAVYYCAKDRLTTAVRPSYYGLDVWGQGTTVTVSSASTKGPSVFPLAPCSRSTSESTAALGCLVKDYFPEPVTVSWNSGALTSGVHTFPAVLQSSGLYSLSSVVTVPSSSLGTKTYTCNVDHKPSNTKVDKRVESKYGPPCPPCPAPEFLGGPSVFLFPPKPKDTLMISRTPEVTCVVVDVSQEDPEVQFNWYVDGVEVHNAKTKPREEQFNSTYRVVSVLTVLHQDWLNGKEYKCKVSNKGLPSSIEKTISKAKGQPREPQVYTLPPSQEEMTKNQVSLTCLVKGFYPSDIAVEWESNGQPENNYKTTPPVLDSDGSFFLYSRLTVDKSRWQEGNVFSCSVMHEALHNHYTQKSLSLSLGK
light: DIVMTQSPLSLPVTPGEPASISCRSSQSLLYSLGYNYLDWYLQKSGQSPQLLIYLASNRASGVPDRFSGSGSGTDFTLKISRVEAEDVGFYYCMQSLQTPYTFGQGTKLEIKRTVAAPSVFIFPPSDEQLKSGTASVVCLLNNFYPREAKVQWKVDNALQSGNSQESVTEQDSKDSTYSLSSTLTLSKADYEKHKVYACEVTHQGLSSPVTKSFNRGEC
notes: hIgG4 WT, kappa

- EC50 (read off the curve) [3]: ~0.02 nM
B2: AB-9d (antibody, human IgG1, kappa)
heavy chain: not shown
light chain: B1 light
notes: hIgG1 ('d')

- Kd [1]: ≤ 0.12 nM
- EC50 (read off the curve) [2]: ~0.05 nM
- Kd [4]: 0.0266 nM
- koff [4]: 2.22e-05 s⁻¹
- kon [4]: 836000 M⁻¹ s⁻¹
- Inhibition of CD23 Expression by Primary B cells (IC50), Donor 13 [5]: 24.9 nM
- Inhibition of CD23 Expression by Primary B cells (IC50), Donor 52 [5]: 23 nM
- Inhibition of CD23 Expression by Primary B cells (IC50), Donor 53 [5]: 26.2 nM
- Inhibition of CD23 Expression by Primary B cells (IC50), Donor 56 [5]: 25.8 nM
B3: AB-13c (antibody, human IgG4 S228P, kappa)
heavy: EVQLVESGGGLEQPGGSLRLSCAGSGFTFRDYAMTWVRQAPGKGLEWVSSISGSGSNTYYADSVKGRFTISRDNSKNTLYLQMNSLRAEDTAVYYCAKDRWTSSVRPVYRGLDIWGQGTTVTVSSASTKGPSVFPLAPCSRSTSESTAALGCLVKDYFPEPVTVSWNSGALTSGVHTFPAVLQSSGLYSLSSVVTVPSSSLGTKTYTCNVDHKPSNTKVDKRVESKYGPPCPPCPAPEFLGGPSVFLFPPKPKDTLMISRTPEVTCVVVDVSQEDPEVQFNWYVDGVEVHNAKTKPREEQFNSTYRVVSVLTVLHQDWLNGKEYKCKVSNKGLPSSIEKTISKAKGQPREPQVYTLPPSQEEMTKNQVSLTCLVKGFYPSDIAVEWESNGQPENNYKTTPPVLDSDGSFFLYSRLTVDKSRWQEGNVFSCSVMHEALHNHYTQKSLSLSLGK
light: B1 light with L33H, Q98Y
notes: hIgG4 wild type, kappa

- binding result [3]: binds
B4: AB-1d (antibody, human IgG1, kappa, V domains shown)
VH: EVQLVESGGGLEQPGGSLRLSCAGSGFTFSDYAMTWVRQAPGKGLEWVSSISGSGGNTYYADSVKGRFTISRDNSKNTLYLQMNSLRAEDTAVYYCAKDALTIAIRPYYYGLDVWGQGTTVTVSS
VL: DIVMTQSPLSLPVTPGEPASISCRSSQSLDYSYGYNYLDWYLQKSGQSPQLLIYLASNRASGVPDRFSGSGSGTDFTLKISRVEAEDVGFYYCMQSLSTPYTFGQGTKLEIKR
notes: hIgG1 ('d')

- IC50 (read off the curve) [6]: ~0.4 nM
B5: AB-12d (antibody, human IgG1, kappa)
heavy chain: not shown
light chain: B1 light with L33Q, Q98F
